{"source": "paper PMC6166713", "key": {"GST-WASP(201–321) K225A [1]": {"target": "GST-WASP(201–321) K225A (UniProt P42768)", "experiment": "scintillation proximity assay (SPA); 5 nM GST-WASP variant immobilised on protein A SPA fluoromicrospheres via an anti-GST antibody; varying concentrations of [3H]GTP·Cdc42; direct binding isotherm; apparent Kd; low-salt buffer"}, "[2]": {"target": "GST-WASP(201–321) K225A/K226A/R227A (UniProt P42768)", "experiment": "scintillation proximity assay (SPA); 5 nM GST-WASP variant immobilised on protein A SPA fluoromicrospheres via an anti-GST antibody; varying concentrations of [3H]GTP·Cdc42; direct binding isotherm; apparent Kd; low-salt buffer"}, "[3]": {"target": "GST-WASP(201–321) K225A/K226A/R227A/K230A/K231A/K232A (UniProt P42768)", "experiment": "scintillation proximity assay (SPA); 5 nM GST-WASP variant immobilised on protein A SPA fluoromicrospheres via an anti-GST antibody; varying concentrations of [3H]GTP·Cdc42; direct binding isotherm; apparent Kd; low-salt buffer"}, "GST-WASP(201–321) K226A [4]": {"target": "GST-WASP(201–321) K226A (UniProt P42768)", "experiment": "scintillation proximity assay (SPA); 5 nM GST-WASP variant immobilised on protein A SPA fluoromicrospheres via an anti-GST antibody; varying concentrations of [3H]GTP·Cdc42; direct binding isotherm; apparent Kd; low-salt buffer"}, "[5]": {"target": "GST-WASP(201–321) K226A/R227A (UniProt P42768)", "experiment": "scintillation proximity assay (SPA); 5 nM GST-WASP variant immobilised on protein A SPA fluoromicrospheres via an anti-GST antibody; varying concentrations of [3H]GTP·Cdc42; direct binding isotherm; apparent Kd; low-salt buffer"}, "GST-WASP(201–321) K230A": {"target": "GST-WASP(201–321) K230A (UniProt P42768)", "experiment": "scintillation proximity assay (SPA); 5 nM GST-WASP variant immobilised on protein A SPA fluoromicrospheres via an anti-GST antibody; varying concentrations of [3H]GTP·Cdc42; direct binding isotherm; apparent Kd; low-salt buffer"}, "[6]": {"target": "GST-WASP(201–321) K230A/K232A (UniProt P42768)", "experiment": "scintillation proximity assay (SPA); 5 nM GST-WASP variant immobilised on protein A SPA fluoromicrospheres via an anti-GST antibody; varying concentrations of [3H]GTP·Cdc42; direct binding isotherm; apparent Kd; low-salt buffer"}, "GST-WASP(201–321) K231A": {"target": "GST-WASP(201–321) K231A (UniProt P42768)", "experiment": "scintillation proximity assay (SPA); 5 nM GST-WASP variant immobilised on protein A SPA fluoromicrospheres via an anti-GST antibody; varying concentrations of [3H]GTP·Cdc42; direct binding isotherm; apparent Kd; low-salt buffer"}, "GST-WASP(201–321) K232A": {"target": "GST-WASP(201–321) K232A (UniProt P42768)", "experiment": "scintillation proximity assay (SPA); 5 nM GST-WASP variant immobilised on protein A SPA fluoromicrospheres via an anti-GST antibody; varying concentrations of [3H]GTP·Cdc42; direct binding isotherm; apparent Kd; low-salt buffer"}, "GST-WASP(201–321) R227A": {"target": "GST-WASP(201–321) R227A (UniProt P42768)", "experiment": "scintillation proximity assay (SPA); 5 nM GST-WASP variant immobilised on protein A SPA fluoromicrospheres via an anti-GST antibody; varying concentrations of [3H]GTP·Cdc42; direct binding isotherm; apparent Kd; low-salt buffer"}, "[7]": {"target": "GST-WASP(201–321) wild type (UniProt P42768)", "experiment": "scintillation proximity assay (SPA); 5 nM GST-WASP variant immobilised on protein A SPA fluoromicrospheres via an anti-GST antibody; varying concentrations of [3H]GTP·Cdc42; direct binding isotherm; apparent Kd; low-salt buffer"}, "GST-WASP(201–321) K225A [8]": {"target": "GST-WASP(201–321) K225A (UniProt P42768)", "experiment": "BLI; Octet Red; GST-WASP variants loaded on anti-GST sensors (10 μg/ml), dipped into a dilution range of Cdc42·GMPPNP; 50 mM Tris-HCl pH 7.5, 150 mM NaCl, 1 mM MgCl2, 0.02% Tween 20, 0.1% BSA, 0.05% sodium azide, 25 °C; GST-alone sensors subtracted"}, "[9]": {"target": "GST-WASP(201–321) K225A/K226A/R227A/K230A/K231A/K232A (UniProt P42768)", "experiment": "BLI; Octet Red; GST-WASP variants loaded on anti-GST sensors (10 μg/ml), dipped into a dilution range of Cdc42·GMPPNP; 50 mM Tris-HCl pH 7.5, 150 mM NaCl, 1 mM MgCl2, 0.02% Tween 20, 0.1% BSA, 0.05% sodium azide, 25 °C; GST-alone sensors subtracted"}, "GST-WASP(201–321) K226A [10]": {"target": "GST-WASP(201–321) K226A (UniProt P42768)", "experiment": "BLI; Octet Red; GST-WASP variants loaded on anti-GST sensors (10 μg/ml), dipped into a dilution range of Cdc42·GMPPNP; 50 mM Tris-HCl pH 7.5, 150 mM NaCl, 1 mM MgCl2, 0.02% Tween 20, 0.1% BSA, 0.05% sodium azide, 25 °C; GST-alone sensors subtracted"}, "[11]": {"target": "GST-WASP(201–321) K230A/K231A/K232A (UniProt P42768)", "experiment": "BLI; Octet Red; GST-WASP variants loaded on anti-GST sensors (10 μg/ml), dipped into a dilution range of Cdc42·GMPPNP; 50 mM Tris-HCl pH 7.5, 150 mM NaCl, 1 mM MgCl2, 0.02% Tween 20, 0.1% BSA, 0.05% sodium azide, 25 °C; GST-alone sensors subtracted"}, "[12]": {"target": "GST-WASP(201–321) wild type (UniProt P42768)", "experiment": "BLI; Octet Red; GST-WASP variants loaded on anti-GST sensors (10 μg/ml), dipped into a dilution range of Cdc42·GMPPNP; 50 mM Tris-HCl pH 7.5, 150 mM NaCl, 1 mM MgCl2, 0.02% Tween 20, 0.1% BSA, 0.05% sodium azide, 25 °C; GST-alone sensors subtracted"}}}
{"substance": "Cdc42 Δ7 Q61L (from UniProt P60953 1-191) (natural protein)", "values": [{"measurement": "Kd", "setting": "GST-WASP(201–321) K225A [1]", "result": 2.8, "unit": "µM"}, {"measurement": "Kd", "setting": "[2]", "result": 8.8, "unit": "µM"}, {"measurement": "Kd", "setting": "[3]", "result": 98.6, "unit": "µM"}, {"measurement": "Kd", "setting": "GST-WASP(201–321) K226A [4]", "result": 5.4, "unit": "µM"}, {"measurement": "Kd", "setting": "[5]", "result": 5.7, "unit": "µM"}, {"measurement": "Kd", "setting": "GST-WASP(201–321) K230A", "result": 9.7, "unit": "µM"}, {"measurement": "Kd", "setting": "[6]", "result": 18.4, "unit": "µM"}, {"measurement": "Kd", "setting": "GST-WASP(201–321) K231A", "result": 12.4, "unit": "µM"}, {"measurement": "Kd", "setting": "GST-WASP(201–321) K232A", "result": 12.2, "unit": "µM"}, {"measurement": "Kd", "setting": "GST-WASP(201–321) R227A", "result": 4.3, "unit": "µM"}, {"measurement": "Kd", "setting": "[7]", "result": 0.5, "unit": "µM"}, {"measurement": "Kd", "setting": "GST-WASP(201–321) K225A [8]", "result": 0.0835, "unit": "µM"}, {"measurement": "koff", "setting": "GST-WASP(201–321) K225A [8]", "result": 0.0468, "unit": "s⁻¹"}, {"measurement": "kon", "setting": "GST-WASP(201–321) K225A [8]", "result": 671000, "unit": "M⁻¹ s⁻¹"}, {"measurement": "Kd", "setting": "[9]", "result": 0.734, "unit": "µM"}, {"measurement": "koff", "setting": "[9]", "result": 0.145, "unit": "s⁻¹"}, {"measurement": "kon", "setting": "[9]", "result": 198000, "unit": "M⁻¹ s⁻¹"}, {"measurement": "Kd", "setting": "GST-WASP(201–321) K226A [10]", "result": 0.0544, "unit": "µM"}, {"measurement": "koff", "setting": "GST-WASP(201–321) K226A [10]", "result": 0.0338, "unit": "s⁻¹"}, {"measurement": "kon", "setting": "GST-WASP(201–321) K226A [10]", "result": 676000, "unit": "M⁻¹ s⁻¹"}, {"measurement": "Kd", "setting": "[11]", "result": 0.307, "unit": "µM"}, {"measurement": "koff", "setting": "[11]", "result": 0.0914, "unit": "s⁻¹"}, {"measurement": "kon", "setting": "[11]", "result": 300000, "unit": "M⁻¹ s⁻¹"}, {"measurement": "Kd", "setting": "[12]", "result": 0.0637, "unit": "µM"}, {"measurement": "koff", "setting": "[12]", "result": 0.0417, "unit": "s⁻¹"}, {"measurement": "kon", "setting": "[12]", "result": 691000, "unit": "M⁻¹ s⁻¹"}]}
